From a protein production outcome set (Wang et al. 2014) come the findings set out here.

The nature of the data set: label from the status in PepcDB records.
In the case of “MLTHKTCQARKKMQVSFVIRDAEEKQHRNGVNALQLDANNGKLYSAGRDAIIRVWNTRTDSSEKYIQSMEHHNDWVNDIVLCCNGRNLISASCDTTVKVWNAQKGFCMSTLRTHRDYVQALAYAKDREQVASAGLDKAIFLWDVNTLTALTASNNTVTTSSLTGSKDSIYSLAMNPSGTVIVSGSTENILRIWDPRTCMRRMKLRGHTENVRCLVVSPDGNQVVSGSSDGTIKVWNLGQQRCVQTIHVHKEGVWSLLMSENFQYIISGSRDRNIIVTEMRNPSNKTLVCEEQAPVLSLGYNIDKTGVWATTWNSDIRCWKLPMYDRCTLNSSGGMDAQWTQGGTEVACIKGGAAIKECAVLNDKRYIITKDSQDQVVVYDVLRVVKKEQLGAVDFEAEVKKRNKQVYIPNWFTVDLKTGMPTIVLGQEEVDCFSAWVSIEAGLPECVDPTTEIKINYGKLLLEALLEYWTPPHSIPPNEMEPDMHGNGYFQVPKHTPVIFSEVGGRTVCRLLVRDAAGDSESTLLHETAPQWVTDVVIEKNIPKFLKIPFFLQPHPQMTKPERTKKDRLVANEFIQCRKVCEHVLEKVLNAETTPSGGNANNSLQNSQSDANSEGSQLPAEERIELWCNDVVVDPNMDLRTVRHFIWKQSTDLTFQYKTKQNFNYDGK”, the protein production entry is reported as “failed”. With “MKKKALLPLFLGIMIFLAGCDYSTPEKQDGFFFNTFVQPMKHLLQWLGNDVFHNNFGLAIIVLVLFIRLILLPFMLSNYKNSHMMREKMKVAKPEVDGIQEKVKRARTQEEKMAANQELMEVYKKYDMNPMKSMLGCLPILIQMPIIMGLYFVLKDKLVNGLSEHPHFLWFNLTKPDIWITVIAGVLYFIQAVVSSKTMPQEQRQMGYMMMVISPIMIIWISLQASSALGLYWSVSALFLVIQTHFANIYYSKLAKKEVQPFIEKYEREHNPYSKKKGKNTQVVSKKNKK” the entry was “failed”; with “MEEPRRLGGRYELGPVLGRGGMAEVYHAHDTRLGRQVAVKTLRADLARDPSFQARFRREAQSAASLNHPAIVAVYDTGEDYIDNVSIPYIVMEYVDGSTLRELLHSGRKLLPERTLEMTIGILQALEYSHRAGIVHRDIKPANVMLTRNGQVKVMDFGIARAMGDSGMTMTQTAAVIGTAQYLSPEQAKGEQVDARSDLYSTGCLLYELLTVRPPFVGDSPVAVAYQHVREEPQAPSVFDPEITPEMDAIVLKALVKDPDYRYQSADEMRVDIEACLDGQPVGATAAMGAMAAGGYGAYPDDQPTTALRSDGGGGATTMLPPMNPDDGGYGYDERPDRRRQQPRKKNTSTIFLVLAGVLVLVGAILIGKYAFSGDGGPGNDKVPVPAFIGLSKADAQQQADNIDLVLTFKQQECEDQPKGNICAQDPKQGTDVDKESTVNLVVSTGAPKVAVPNVIDKNIDEAKKQLEDKGFEVETKQTESSQDEGTILSQNPDPGKELEKGSTVTLEVAKAEEKATVPDVVGRTCDEAKAQVESGGDLTAVCTDQPTNDPNQVGKVISTTPQSSTQVDPGSKVTIVVGKAVEKTKVPEVRGKTLAEARQILQQSGFTNVQVAQGSPGDDNAKVFASNPQPGSEVDDPAATPITLMTVPGDGGNGNGGNGNGGAIAGLPGFGD”, “failed”; with “MVERVASSEVANRLNEWYDTIKRQDIKKAAILKHDLQKAMDDMEEDQNVLLYYNLIDSRYKLLLEQYDESGTILESLKDQTERADTDNLLQYYYYFFSGLYEFNMNNFTHAIRLYHKAENHLTTIPDEIEHAEFHFQLAVAYQSIDQSFFSINHAEKALDIYLKQENYVSRIALTQMIIAANKLDLNQYLAAEKLYKKAILIAVDSNQTFIELLGYYNLGLCYEVQEKLEQARDCFEKALDFNFPQENKKETYLRIKYMLARVLFKMGFLQEGVKWFEDAVQLANETNDKIYQVKLQIIHAVYFDQKELSIDEGLKVLKEQSLWHDVEDLSFIAARFYKKEGFYQLASKYYEEGLNAQQKIPSLYEEVGSA”, “failed”. To “MSDALSAIPAAVHRNLSDKLYEKRKNAALELENIVKNLTSSGDHDKISKVIEMLIKEFAKSPQANHRKGGLIGLAAVTVGLSTEAAQYLEQIVPPVINSFSDQDSRVRYYACEALYNIAKVVRGDFIIFFNKIFDALCKLSADSDANVQSAAHLLDRLVKDIVTESDQFSIEEFIPLLKERMNVLNPYVRQFLVGWITVLDSVPDIDMLGFLPDFLDGLFNMLSDSSHEIRQQADSALSEFLQEIKNSPSVDYGRMAEILVQRAASPDEFTRLTAITWINEFVKLGGDQLVRYYADILGAILPCISDKEEKIRVVARETNEELRSIHVEPSDGFDVGAILSVARRQLSSEFEATRIEALNWISTLLNKHRTEVLCFLNDIFDTLLKALSDSSDDVVLLVLEVHAGVAKDPQHFRQLIVFLVHNFRADNSLLERRGALIVRRMCVLLDAERVYRELSTILEGEDNLDFASTMVQALNLILLTSPELSKLRELLKGSLVNREGKELFVALYTSWCHSPMAIISLCLLAQAYQHASVVIQSLVEEDINVKFLVQLDKLIRLLETPIFTYLRLQLLEPGRYTWLLKTLYGLLMLLPQQSAAFKILRTRLKTVPTYSFSTGNQIGRATSGVPFSQYKHQNEDGDLEDDNINSSHQGINFAVRLQQFENVQNLHRGQARTRVNYSYHSSSSSTSKEVRRSEEQQQQQQQQQQQQQQQQRPPPSSTSSSVADNNRPPSRTSRKGPGQLQL” belongs “not failed”; to “MVIGLIATLYRPKEATLYVLLYLLLGAIGLPVFSGGNGGLHTFIGQTGGFLLFFPLRALVTSLIANRKKILIQIFIANFLGEVVLFIGGAIGFIIFTHSLILTTLKLVVLPFVLPDLIKITLTTLFSLLLLKALQSQSYFKIEK”, “failed”; to “MGSIDRYIFRTTLVSFAVVMGSLTGVIWITQALRGIDLMTSQGQTIITFLGLTGLAVPVLVLVIAPIALMIAVAHTLNRLATDSEIIVMNAAGLSPIRLFRPFFYATMVVAALVIIIGAYIAPDGLRRIARWDSEITADVLANVLQPGRFAQLEQGLTIRVRERQPGGLLVGVFIDDARAPNERVSIIADHGTVVKNDKGSFLVLEDGHLERFQTGKQEPALVAFSRYAFDMSKFSRARDVAYGIRERYLWELLWPAENDPLLARLPTEFRSEMHDRLLAPIYPFFFAAVAFAFLGLARTTRQSRNFSMAGAVLVAFVVRLAGFALSVIANKTPYVAGLQYLLLFVATGTCLWLINRNVVIEPPARVTEALNAFNASIARLIRRPVPA”, “failed”. To “SGQAYIGTYPNGDKIFVKINTTPILAALAKEQIAPQLLWAKRLGNGDMMSAQEWLDGRLLTRADMNSKQIIQVLLQMHKSKPLVNQLLQLNYKVETPLDLLLSWERSAPYQISENAYLQSVVAEMKRNLPDFKKDYATIVHGDVRHSNWVITTSGLVYLVDWDSVRVTDRMYDVAHILSHYIPHTRWAEWLSYYGYKQNTKVFQKIKWYGQLSYLSQILKYYENR” belongs “failed”. Consider “MSLKQQFSTKAFQAANLEAYKAQMKEMEESFGALLRQLPSDTEVPGLLEDITRTGLGSGLEFEEIKLLPEVAQQFYIELPIQISVVGGYHDLATFVSGVSSLPRIVTLHDFEIKPVAPGSTSKLRMSILAKTYRYNDKGEGHHHHHH”, for which the protein production result is reported as “not failed”.

For “MDSASQDINLNSPNKGVLSDFMTDVPVDPGVVHRTPVVEGLTEGEEEELRAELAKVEEEIVTLRQVLAAKERHCGELKRRLGLSTLGELKQNLSRSWHDVQVSTAYVKTSEKLGEWNEKVTQSDLYKKTQETLSQAGQKTSAALSTMGSAISRKLGDMSSYSIRHSISMPVMRNSATFKSFEDRVGTIKSKVVGGRENGSDNLPPSPGSGDQTLPDHAPF”, the protein production result is “failed”. With “MSYSNILVAVAVTPESQQLLAKAVSIARPVKGHISLITLASDPEMYNQLAAPMLEDLRNVMQEETQSFLDKLIQDAGYPVDKTFIAYGELSEHILEVCRKHHFDLVICGNHNHSFFSRASCSAKRVITSSEVDVLLVPLTGD” the entry was “failed”. To “MASATEDPVLERYFKGHKAAITSLDLSPNGKQLATASWDTFLMLWNFKPHARAYRYVGHKDVVTSVQFSPHGNLLASASRDRTVRLWIPDKRGKFSEFKAHTAPVRSVDFSADGQFLATASEDKSIKVWSMYRQRFLYSLYRHTHWVRCAKFSPDGRLIVSCSEDKTIKIWDTTNKQCVNNFSDSVGFANFVDFNPSGTCIASAGSDQTVKVWDVRVNKLLQHYQVHSGGVNCISFHPSGNYLITASSDGTLKILDLLEGRLIYTLQGHTGPVFTVSFSKGGELFASGGADTQVLLWRTNFDELHCKGLTKRNLKRLHFDSPPHLLDIYPRTPHPHEEKVETVEINPKLEVIDLQISTPPVMDILSFDSTTTTETSGRTLPDKGEEACGYFLNPSLMSPECLPTTTKKKTEDMSDLPCESQRSIPLAVTDALEHIMEQLNVLTQTVSILEQRLTLTEDKLKDCLENQQKLFSAVQQKS” belongs “failed”.
